Experimental data published in the supplement of paper PMC9170038.

Test system: MS2 coat protein
Test: apparent KD of MS2 coat protein; designed switch direction (-1 OFF switch, 1 ON switch): -1; higher = weaker reporter binding
In short: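 SNAP-549-labelled MS2 coat protein was titrated, doubling from 0.7 or 1.5 nM to 3 µM, over designed RNA switches transcribed on Illumina chips by stalled E. coli RNA polymerase. Runs were done without input, with 200 uM small-molecule ligand, or with an oligonucleotide input. Apparent KD is the per-design median over clusters of curve-fitted normalised fluorescence.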

[1] = input ligand: microRNA oligo, concentration not stated
[2] = Eterna round: R95, input ligand: FMN 200 uM
[3] = Eterna round: R95, input ligand: microRNA oligo, concentration not stated
[4] = Eterna round: R95, input ligand: none

UACAUGAGGAUCACCCAUGUUUUGUCGUGUAUGGUAUUUAUCUAGGAUAUCAAUGUGUUUAUUUAUGAGAAGGAGAAUAUUAAU [JMF's solution 39] (Eterna round: R96, puzzle: Exclusion NG 3)
apparent KD of MS2 coat protein (input ligand: FMN 200 uM): 40 nM | apparent KD of MS2 coat protein [1]: 31.8 nM | apparent KD of MS2 coat protein (input ligand: none): 35.4 nM

UACAUGAGGAUCACCCAUGUUUUGUCGUGUAUGGUAUUUAUCUAGGAUAUCAAUUAAUUUAUUUAUGAGAAGGAGAAUAUUAAU [JMF's solution 14] (Eterna round: R96, puzzle: Exclusion NG 3)
apparent KD of MS2 coat protein (input ligand: FMN 200 uM): 40.3 nM | apparent KD of MS2 coat protein [1]: 28.1 nM | apparent KD of MS2 coat protein (input ligand: none): 38.3 nM

UACAUGAGGAUCACCCAUGUUUUGUCGUGUAUGGUAUUUAUCUAGGAUAUCAAUUGAUUUAUGUAUGAGAAGGAGAAUAUUAAU [JMF's solution 63] (Eterna round: R96, puzzle: Exclusion NG 3)
apparent KD of MS2 coat protein (input ligand: FMN 200 uM): 41.1 nM | apparent KD of MS2 coat protein [1]: 34.9 nM | apparent KD of MS2 coat protein (input ligand: none): 34.8 nM

UACAUGAGGAUCACCCAUGUUUUGUCGUGUAUGGUAUUUAUCUAGGAUAUCAAUUUAUUUAUGUAUGAGAAGGAGAAUAUUAAU [JMF's solution 23] (Eterna round: R96, puzzle: Exclusion NG 3)
apparent KD of MS2 coat protein (input ligand: FMN 200 uM): 40.8 nM | apparent KD of MS2 coat protein [1]: 29.8 nM | apparent KD of MS2 coat protein (input ligand: none): 44.7 nM

UACAUGAGGAUCACCCAUGUUUUGUCGUGUAUGGUAUUUAUCUAGGAUAUCAAUUUGUUUAGUUAUGAGAAGGAGAAUAUUAAU [JMF's solution 71] (Eterna round: R96, puzzle: Exclusion NG 3)
apparent KD of MS2 coat protein (input ligand: FMN 200 uM): 35.9 nM | apparent KD of MS2 coat protein [1]: 33.3 nM | apparent KD of MS2 coat protein (input ligand: none): 37.6 nM

UACAUGAGGAUCACCCAUGUUUUGUCGUGUAUGGUAUUUAUCUAGGAUAUCAAUUUGUUUAUGUAUGAGAAGGAGAAUAUUAAU [JMF's solution 72] (Eterna round: R96, puzzle: Exclusion NG 3)
apparent KD of MS2 coat protein (input ligand: FMN 200 uM): 32.9 nM | apparent KD of MS2 coat protein [1]: 28.4 nM | apparent KD of MS2 coat protein (input ligand: none): 35.6 nM

UACAUGAGGAUCACCCAUGUUUUGUCGUGUAUGGUAUUUAUCUAGGAUAUCACUUUAUUUAUUUAUGAGAAGGAGAAUAUUAAU [JMF's solution 8] (Eterna round: R96, puzzle: Exclusion NG 3)
apparent KD of MS2 coat protein (input ligand: FMN 200 uM): 34.2 nM | apparent KD of MS2 coat protein [1]: 27.1 nM | apparent KD of MS2 coat protein (input ligand: none): 37.9 nM

UACAUGAGGAUCACCCAUGUUUUGUCGUGUUUGGUACCCGUUUAGGAUAUCGUGUUAUUGGAUCGCGAGAAGGAGAGUAUCUUU [Excl-NG3-LRO08] (Eterna round: R96, puzzle: Exclusion NG 3)
apparent KD of MS2 coat protein (input ligand: FMN 200 uM): 26.8 nM | apparent KD of MS2 coat protein [1]: 26 nM | apparent KD of MS2 coat protein (input ligand: none): 31.7 nM

UACCGGCGGACCGAGGCUUUUUGCUCGUCUUAUGCUACGACAUGAGGAUCACCCAUGUGGUGGUGGUCCGUUGUAGU [JL ViennaUCT Bitein mod 7] (puzzle: Sensor v3, turn-off variant 2)
apparent KD of MS2 coat protein [2]: 106 nM | apparent KD of MS2 coat protein [3]: 13.3 nM | apparent KD of MS2 coat protein [4]: 122 nM

UACCUGAGGCAAAGCUUUAGGUAAACAUGAGGAUCACCCAUGUAGGAUAUGGUAGGCAAAGCUUACCAGAAGGACAUGAAAAUU [Mat - Exclusion NG 3 - Mod of JL - D36] (Eterna round: R96, puzzle: Exclusion NG 3)
apparent KD of MS2 coat protein (input ligand: FMN 200 uM): 333 nM | apparent KD of MS2 coat protein [1]: 53.3 nM | apparent KD of MS2 coat protein (input ligand: none): 87.8 nM

UACCUGAGGCUUUGCUUUAGGUUUACAUGAGGAUCACCCAUGUAGGAUAUGGUAGGCUUUGCUUACCAGAAGGACAUGUUAAUU [JL ENG3 1.08] (Eterna round: R96, puzzle: Exclusion NG 3)
apparent KD of MS2 coat protein (input ligand: FMN 200 uM): 190 nM | apparent KD of MS2 coat protein [1]: 64.9 nM | apparent KD of MS2 coat protein (input ligand: none): 59.9 nM

UACGAAGAGUGAGGAUAUGUGCGACAAAGUUGCACAGAAGGCACAUGAGGAUCACCCAUGUAAGCUAGGUCGAAAGACCUAGCG [Omei Exc(NG)1 Av4] (Eterna round: R96, puzzle: Exclusion NG 1)
apparent KD of MS2 coat protein (input ligand: FMN 200 uM): 130 nM | apparent KD of MS2 coat protein [1]: 21 nM | apparent KD of MS2 coat protein (input ligand: none): 44.7 nM

UACGAGCUAGGAUAUGCUUUGGGCUCGCUUUCCUUCGAUAAACUUGAGGAUCACCCAAGUAGAAGGAGCUUGUA [Mod 33 - Jieux - Exclusion 2] (Eterna round: R97, puzzle: Exclusion 2)
apparent KD of MS2 coat protein (input ligand: FMN 200 uM): 61.5 nM | apparent KD of MS2 coat protein (input ligand: none): 25.9 nM

UACUGGACAGGAUAUGUACUUGAGCACUUGAGGAUCACCCAAGUCAUCAAGUACUCAGGCACAGAAGGGUUAAUUU [jl-ex5.4.64 ViennaUCT mod] (Eterna round: R97, puzzle: Exclusion 5)
apparent KD of MS2 coat protein (input ligand: FMN 200 uM): 330 nM | apparent KD of MS2 coat protein (input ligand: none): 129 nM

UACUUCCGAGGAUAUACAUGAGGAUCACCCAUGUGCUUCAGCAUUUUUUGAUGCAUGGGUAGAAGGCGGUAGUU [LRO-Excl3-17] (puzzle: Exclusion 3)
apparent KD of MS2 coat protein [3]: 299 nM

UACUUGUUAGGAUAUCUUACAUUUGCAUCAUAGCAACUAUUGGAGAAGGGACAUGAGGAUCACCCAUGUUUGGU [tap-tap-tappy13] (Eterna round: R97, puzzle: Exclusion 4)
apparent KD of MS2 coat protein (input ligand: FMN 200 uM): 48.4 nM | apparent KD of MS2 coat protein (input ligand: none): 41.9 nM

UAGAAACAUGAGGAUCACCCAUGUGAGGAUAUGAAAAAGAAAAGAAAAGAAAGAAGAAUCAGAAGGCACAAAGC [salish99-ex1_r3_092] (puzzle: Exclusion 1)
apparent KD of MS2 coat protein [2]: 28.6 nM | apparent KD of MS2 coat protein [3]: 17.7 nM | apparent KD of MS2 coat protein [4]: 36.6 nM

UAGAAGGUAGGAUAUACGAAUAAAUAGGGUAGAAUAAUAACACAUGAGGAUCACCCAUGUAGAAGGACCAAGAU [Mat - Exclusion 2 - Mod of my Tesla design - D30] (puzzle: Exclusion 2)
apparent KD of MS2 coat protein [2]: 42.9 nM | apparent KD of MS2 coat protein [3]: 20.7 nM | apparent KD of MS2 coat protein [4]: 20.7 nM

UAGAAGGUAGGAUAUACGAAUAAAUAGGGUAGUAAGAAUACACAUGAGGAUCACCCAUGUAGAAGGACCAAGAU [Mat - Exclusion 2 - Mod of my Tesla design - D32] (puzzle: Exclusion 2)
apparent KD of MS2 coat protein [2]: 43.1 nM | apparent KD of MS2 coat protein [3]: 19.5 nM | apparent KD of MS2 coat protein [4]: 20.9 nM

UAGAAGUUCAACGAGUGAAACAUGAGGAUCACCCAUGUGGUGGUAAGGAACAAGCUUUUUGCACGUACUUAUGAGGA [JR_SV3TOV1_Sub004] (puzzle: Sensor v3, turn-off variant 1)
apparent KD of MS2 coat protein [2]: 287 nM | apparent KD of MS2 coat protein [3]: 400 nM | apparent KD of MS2 coat protein [4]: 452 nM

UAGAAUCGAGGAUAUACAUGAGGAUCACCCAUGUGUGGCCAUACUGUGUGGUCGUCAGGUAGAAGGCGAUUAUA [Exclusion 3 - Mod of Jieux's Gilly Gone Silly 23] (puzzle: Exclusion 3)
apparent KD of MS2 coat protein [3]: 45.4 nM

UAGAUACAUGAGGAUCACCCAUGUGAGGAUAUGAGUCAGUCACGGUGACGUGGCUGACUCAGAAGGCACAAAGG [Mat - Exclusion 1 - JL Mod - D36] (Eterna round: R97, puzzle: Exclusion 1)
apparent KD of MS2 coat protein (input ligand: FMN 200 uM): 365 nM | apparent KD of MS2 coat protein (input ligand: none): 202 nM

UAGAUGGGAGGAUAUACAUAGAUACAGAUUCGUGUAGUGCUACAUGAGGAUCACCCAUGUAGAAGGCCCGUCUU [JL-ex2-2.21 Mayanne mod] (puzzle: Exclusion 2)
apparent KD of MS2 coat protein [3]: 15.2 nM

UAGAUGGGAGGAUAUACGUAGAUGCAGAUUCGUGUGGUGCUACAUGAGGAUCACCCAUGUAGAAGGCCCGUCUU [JL-ex2-2.24 Mayanne mod] (puzzle: Exclusion 2)
apparent KD of MS2 coat protein [3]: 15.4 nM

UAGAUGGGAGGAUAUGCGUAGAUACGGAUUCGUGUGGUGCUACAUGAGGAUCACCCAUGUAGAAGGCCCGUCUU [JL-ex2-2.27 Mayanne mod] (puzzle: Exclusion 2)
apparent KD of MS2 coat protein [3]: 12 nM

UAGAUGUGAGGAUAUGGUAAAGAUAGAAUGAUGAAAGAACUCCAGAAGGCACAUGAGGAUCACCCAUGUAGAUG [Mat - Exclusion 4 - Mod of JL - D29] (puzzle: Exclusion 4)
apparent KD of MS2 coat protein [3]: 22.3 nM

UAGCACGGAGGAUAUUGGCUCGCACACAUGAGGAUCACCCAUGUGACUUUAUACUUCCGCUAAGAAGGCCGUGUGG [Eternabot (L1) Solution 93] (Eterna round: R97, puzzle: Exclusion 5)
apparent KD of MS2 coat protein (input ligand: FMN 200 uM): 13.2 nM | apparent KD of MS2 coat protein (input ligand: none): 14.3 nM

UAGCCAUCGUGAGAUGGCUUUCAUACAUGAGGAUCACCCAUGUAGGAUAUCGAUUGCUUUGCAGUCGAGAAGGGCAUGUAUAAU [JL ENG3 3.95] (Eterna round: R96, puzzle: Exclusion NG 3)
apparent KD of MS2 coat protein (input ligand: FMN 200 uM): 34.8 nM | apparent KD of MS2 coat protein [1]: 22.8 nM | apparent KD of MS2 coat protein (input ligand: none): 29.1 nM

UAGCCCAACUCAUCCUCAUUGAGACAUGAGGAUCACCCAUGUGAGGAUAUUGCGUCGAGAGGACACGAGAAGGCACAAUAGUUU [Eternabot solution 17] (Eterna round: R96, puzzle: Exclusion NG 3)
apparent KD of MS2 coat protein (input ligand: FMN 200 uM): 216 nM | apparent KD of MS2 coat protein [1]: 88.1 nM | apparent KD of MS2 coat protein (input ligand: none): 109 nM
